In the DeepSol protein solubility set:

Assay: soluble on expression in E. coli; label from the status in PepcDB or PDB records

GDSLTAQEALATLALSGDDDGPRQTRSYQVMNGIAVLPVSGTLVSRTRALQPYSGMTGYNGIIARLQQAASDPMVDGILLDMDTPGGMVAGAFDCADIIARVRDIKPVWALANDMNCSAGQLLASAASRRLVTQTARTGSIGVMMAHSNYGAALEKQGVEITLIYSGSHKVDGNPYSHLPDDVRETLQSRMDATRQMFAQKVSAYTGLSVQAVLDTEAAVYSGQEAIDAGLAD
soluble on expression in E. coli: not soluble

SHVETGPNGEQIRKHAGQKRTYKAISESYAFLPREAVTRFLMSCSECQKRMHLNPDGTDHKDNGKPPTLVTSMIDYNMPITMAYMKHMKLQLLNSQQDEDESSIESDEFDMSDSTRMSAVNSDLSSNLEERMQSPQNLHGQQDDDSAAESFNGNETLGHSSIASGGTHSREMGDSNSDGKTGLEQDEQPLNLSDSPLSAQLTSEYRIDDHNSNGKNKYKNLLISDLKMEREARENGSKSPAHSYSSYDSGKNESVDRGAEDLSLNRGDEDEDDHEDHDDSEKVNETDGVEAERLKAFNDESAPADKQCKPEATQATYSTSAVPGSQDVLYINGNGTYSYHSYRGLGGGLLNLNDASSSGPTDLSMKRQLATSSGSSSSSNSRPQLSPTEINAVRQLVAGYRESAAFLLRSADELENLILQQN
soluble on expression in E. coli: soluble

DVSQKIKDIDDQIQQLLLKQRHLLSKMASSMKSLKNCQKELISTQILQFEAQNMDVSMNDVIGFFNEREADLK
soluble on expression in E. coli: soluble

STVSEAYSPPLFSIAPMMGWTDNHYRTLARLITKHAWLYTEMLAAETIVYQEDNLDSFLAFSPDQHPIVLQIGGRNLENLAKATRLANAYAYDEINFNCGCPSPKVSGRGCFGALLMLDPKFVGEAMSVIAANTNAAVTVKCRIGVDDHDSYNELCDFIHIVSSLSPTKHFIIHSRKALLSGLSPSDNRRIPPLKCVQKVFLCPFA
soluble on expression in E. coli: soluble

METFDVVVIGAGAAGMMCAIEAGKRGRSVLVIDHAKAPGEKIRISGGGRCNFTNTGASIHNFLSANPKFALSALRRYRPRDFIALVERYGIAYHEKTLGQLFCDGSAKQIITMLLTEMKAAGVTLRLETSVESVAKAVSGFEVSLSSGKVACASLVVASGGKSIPKMGATGLGYDIAKQFGLNIIETRPALVPLTFEAGMLARLTPLSGVALDAVVGHGKTKFQEGMLFTHRGLSGPSILQISSYWREGDEIRVDMAPGVDALAALKTARTATPRQAVATVLATLLPKRVAQVIAEEEAPDKGNIADCSDKVLGRLASAVNAWTFKPVGSEGYRTAEVTLGGVDTEALDSRTLEAKAVPGLFFIGEVVDVTGWLGGYNFQWAWASGWSAGQSV
soluble on expression in E. coli: soluble

MSTILSLAPQNVWKHFYSLTQIPRPSGHMEKVTEFLINFGKGLGLESFVDEAGNVIIRKPATPGMENRKGVILQAHMDMVPQKNNDTVHDFEKDPIETYIDGDWVKAKGTTLGADNGLGVAAIMAVLEANDLKHGPLEALITKDEETGMYGAFGLKPGTVNGEILLNLDSEDEGELYIGCAGGMDVTATLEYKEVAPEEGDVAVKVSLKGLRGGHSGLEINEGRANANKLLVRFVREAVASYEARLVSWDGGNMRNAIPREACAVLAIPAENEEELLGLVKYCEDLFNEEFSAIETPISFTAERVELPAGEVPEEIQDNLIDAIFACQNGVTRMIPTVPDTVETSSNLAIITIGGGKAEIKILARSSSDSMKEYLTTSLESCFSMAGMKVEMTGGYSGWQPNVESPILHAMKESYKQQFGVEPAVKVIHAGLECGIIGAIIPGLDMISFGPTLRSPHSPDERALIPTVQKFYDFLVATLAQTPTKLEHHHHHH
soluble on expression in E. coli: soluble

LRDFNYSIAGNLTWARNKVIDLLEPAGEKNNPRQRSTGHSMSQYFGYEALGLFQSDEEANNWPQPQFGKAKAGDIKYKDQNGDGIIDAEDEIAIGRSNYPELVYGLNLNAEWKGFDITFFFQGAALADFYYNGYLAFPYIEGRGGALLEHHIGNTWTPENPKAEFPRLYYGGNANNQLFSSFWMRNGSYLRLKNVEIGYDFKKLLLSKVSEIQGLRLYFSGSNLLTWSQIKYFDPELRSTDGSAYPQMKTFVFGANITF
soluble on expression in E. coli: not soluble

GSHMIVQIGRREEFDKKLLGEMHKLRAQVFKERKGWDVSVIDEMEIDGYDALSPYYMLIQEDGQVFGCWRILDTTGPYMLKNTFPELLHGKEAPCSPHIWELSRFAINSGQKGSLGFSDCTLEAMRALARYSLQNDIQTLVTVTTVGVEKMMIRAGLDVSRFGPHLKIGIERAVALRIELNAKTQIALYGGVLVEQRLAVS
soluble on expression in E. coli: soluble

MSLAYMPMTTVQHIATTNEKQAQKIIAELNAGASFDSQVRKYQNNRQAHTTAGKLAQFDSYNQTLAPAIVQATAKLRVGHYVTKPVKTVMATADTKDKPTYEIINVVSREGHHHHHH
soluble on expression in E. coli: soluble

MTSSLSLHSSFVPSFADLSDRGLISKNSPTSVSISKVPTWEKKQISNRNSFKLNCVMEKSVDGQTHSTVNNTTDSLNTMNIKEEASVSTLLVNLDNKFDPFDAMSTPLYQTATFKQPSAIENGPYDYTRSGNPTRDALESLLAKLDKADRAFCFTSGMAALSAVTHLIKNGEEIVAGDDVYGGSDRLLSQVVPRSGVVVKRVNTTKLDEVAAAIGPQTKLVWLESPTNPRQQISDIRKISEMAHAQGALVLVDNSIMSPVLSRPLELGADIVMHSATKFIAGHSDVMAGVLAVKGEKLAKEVYFLQNSEGSGLAPFDCWLCLRGIKTMALRIEKQQENARKIAMYLSSHPRVKKVYYAGLPDHPGHHLHFSQAKGAGSVFSFITGSVALSKHLVETTKYFSIAVSFGSVKSLISMPCFMSHASIPAEVREARGLTEDLVRISAGIEDVDDLISDLDIAFKTFPL
soluble on expression in E. coli: soluble

MPKLPRIDFYFDVISPYSYIAFEVFQKLETQWKGVTIRYIPFFLGAVMKESGNRPPAMLPARSIMMMTDLKRTAKFWDIPLTPPPLFMEWIKKYRTTGAMKVLLVLQEQDKELMLRAAREMWVRLWSRSEKIFEDQDFVEVLKAVGVKNPEQIVEKSKDEKYIKILMENTNKGVDLMAYGAPWINVHTEDGSEHSFFGSDRFHLIADLLQQPQPLPDRLFGQKSKL
soluble on expression in E. coli: not soluble

ISGGSSISMMYKYCSRLPHDEFFQPKPEFQFKPVDEFGGTICRITLPANAPISEIESSLLPSTEAAKKDACLKAVHELHNLGVLNDFLLPDSKDEIEDELSD
soluble on expression in E. coli: soluble

MLRRQARERREYLYRKAQELQDSQLQQKRQIIKQALAQGKPLPKELAEDESLQKDFRYDQSLKESEEADDLQVDDEYAATSGIMDPRIIVTTSRDPSTRLSQFAKEIKLLFPNAVRLNRGNYVMPNLVDACKKSGTTDLVVLHEHRGVPTSLTISHFPHGPTAQFSLHNVVMRHDIINAGNQSEVNPHLIFDNFTTALGKRVVCILKHLFNAGPKKDSERVITFANRGDFISVRQHVYVRTREGVEIAEVGPRFEMRLFELRLGTLENKDADVEWQLRRFIRTANKKDYL
soluble on expression in E. coli: soluble

MPTTQLHHHYVLCGWHVRSALTLPELPPWSATATPVDADVVIEEGEVPDRLDLHDPVESWLSVGRDGSVLLQVPQVVRIHVHAGRAMRVQRLNRHDESWRLFLLGSALGYLCLQRSLFPLHAACLRIGTQTVAFAGHSGAGKSTLAAALLKRGHGLLSDDLTVIRLDSAGAIMVLPAFPRLKLWRDTLESLQLPVTDAPPVRPGMEKFDLRPSAGFDAAPVRLDAVVVLGDASEPHLQRLSPQHALPLLHGYLARPQAAVRMGLHAATFAHAAAIARQVPVWRLRRPRRFDALDITVDLIEAHVGALEHHHHHH
soluble on expression in E. coli: not soluble

AVSDQRLSEATLRELEDERQRAGLPEKPEIPEGWTIDRKPGVTHFTMRKSHGDEEIILQLTGEDRSNEEITRTLDVLVVNGGKALVFGMSVEDGEFVINNVCFRHDGKLALDTSAEAQFQKSQLYMGPDLADLEDHLVDSFTSYLSARGVNDTLANFIDQFSLWSEQADYEEWLSSINKFVS
soluble on expression in E. coli: soluble

MAHHHHHHMLNLSSLLISKKNVKDDGNNSSENEVGGNNDVSSLNNDCVKIKLINMQEYKTKKLLDERKNVNVWSANNKKDNDKKEKKKEKKNEQPKKKESVVTKPKAVGENDTKKIENKDIENKNVTPKKLFVPSAIKQQQQKEALKNKQTPKKEEELFPDLIQSKKSNKTEKEKKKTQPAKKSKKEKADKKVQESTKEQENEFPQIEEIEKIHFNIFDFIDMEKQTYEHIVRNSEKVLQKYKNRSKFVDSMIMCN
soluble on expression in E. coli: not soluble

MVARRKGERVVRKNEVENVQQRACANRRERQRTKELNDAFTLLRKLIPSMPSDKMSKIHTLRIATDYISFLDEMQKNGCKLYGHSIFDEKRGYNLQSAFNMWRGNNGYTPIAGPSQLPPLQSAHIPPPAPSSIPPHCLMPQPWYQTCPPPKQEFHELCPISTPNPNSNPNQLTPIHWQ
soluble on expression in E. coli: not soluble

MGSDKIHHHHHHMAIRSSVLALCVATLLTGCQNLNTNTLMQSGAQAFQAATLSDAQVKALSDQSCEQMDKEAKIAPADSKYTQRLNKIADALGHDINGTPANYKVYLEKDVNAWAMANGCIRVYSGLMDMMNDNEVEGVLGHEMGHVALGHTRKAMQVAYAATAARTAIASAGGVAASLSQSQLADLGEKLVNSQFSQSQESQADDYSFDLLKKRGINREGLASSFEKLAKLDASHESSMFDSHPSSEGRAKHIRERITAEK
soluble on expression in E. coli: not soluble

MQCELCGKEVKNIIKTRVEGVEMNVCEACAKFGMSPKGYSRKPRAVFKNETKQKQAKRPRKDMFDNLKTLVEDYGSLVKEAREKKNMTLEELSRAVGIKESLIHKIERNEIEPEEKYVKILEKALGISFYEEGDLNYETSNEDSEFTLGDFIKVKKRK
soluble on expression in E. coli: not soluble

MTNSNDIDETAATIDTARALLKSFGFEAQRHNVRSAVTLLALAGLKPGDHWADSTTPRLGVQKIMDWSGAYWAKPYATGSREDFRKKTLRQWVDNGFAVLNPDNLNIATNSQLNEYCLSDEAAQAIRSYGTDAFESALVDFLSKASDTVRARAEALRAAMISVDLADGDEFLLSPAGQNPLLKKMVEEFMPRFAPGAKVLYIGDTRGKHTRFEKRIFEETLGLTFDPHGRMPDLVLHDKVRKWLFLMEAVKSKGPFDEERHRTLRELFATPVAGLVFVNCFENREAMRQWLPELAWETEAWVADDPDHLIHLNGSRFLGPYER
soluble on expression in E. coli: soluble

SYIDIPPEGSETKNRHNANNPSDVLVIENKHLTKEWPSGGQMMVNNLTAKYTSDGRAVLQDLSFSVNAGQRVGLLGRTGAGKSTLLSALLRLLSTEGEIQIDGISWNSVSLQKWRKAFGVIPQKVFVFSGTFRKNLDPYEQWSDEEIWKVTEEVGLKSMIEQFPDKLNFVLVDGGYILSNGHKQLMCLARSILSKAKILLLDEPTAHLDPVTFQIIRKTLKHTFSNCTVILSEHRVEALLECQQFLVIEGCSVKQFDALQKLLTEASLFKQVFGHLDRAKLFTAHRRNSSKRKTRPKISALQ
soluble on expression in E. coli: not soluble

MGSDKIHHHHHHMTQSDFFSLDGISKRFGVVQALDNVSIAFRPGEVLALVGENGAGKSTMMRILEGVSGPDTGTVRHGSTPIVFGEPRDSHRAGIRVIHQEPEIVPNLTVAENIFVGELPRLAGVLLDWRKLEEQTDRVLATFGMQQDMRPRQLCGTLGPAQRQMIEIMRAIRAGGRLIAFDEPTSSLTDDEARRLFSVVRRLREKGTSIIYISHRLNEIIDLADRIVVLRDGRLVDDSPAAGASEQTIAKLMVGRNIDDLFTRETWRSGEQLLDVAGLTTDRVNDVSLRVRRGEVLGIAGLMGAGRSELAKAIVGYDRRIAGTIAMNGVPVLPNSPHAAIVAGIGFAPEDRKHEALLLFRSILDNAALCVPDKTSSFGFFNRRKAMEIVSPLAAKMSIKAPNLDEQVSKLSGGNQQKVVLARWLARQPMLLILDEPTRGIDIGAKAEIYRLIDELAASGIGIILISSEMPELIGLADRVLVMAGGRITAELARPDIDEATILKHAMPQSASSPGDYIQ
soluble on expression in E. coli: not soluble
